Reference: publication PMC526180, “Conservation and Evolution of Cis-Regulatory Systems in Ascomycete Fungi”

Key:
Details in all cases: protein: recombinant; blunt
Sc_Rpn4p [1] = target: T1, Sc_Rpn4p (Saccharomyces cerevisiae S288C, UniProt Q03465 2-531); assay: competition; SPR; 1x and 5x competitor; Biacore 3000 SA chip; HBS: 10 mM HEPES pH 7.4, 150 mM NaCl, 3 mM EDTA, 0.005% P20; room temperature; 10 ul/min, 90 s injection; competitors preincubated 50 min
T1 sequence: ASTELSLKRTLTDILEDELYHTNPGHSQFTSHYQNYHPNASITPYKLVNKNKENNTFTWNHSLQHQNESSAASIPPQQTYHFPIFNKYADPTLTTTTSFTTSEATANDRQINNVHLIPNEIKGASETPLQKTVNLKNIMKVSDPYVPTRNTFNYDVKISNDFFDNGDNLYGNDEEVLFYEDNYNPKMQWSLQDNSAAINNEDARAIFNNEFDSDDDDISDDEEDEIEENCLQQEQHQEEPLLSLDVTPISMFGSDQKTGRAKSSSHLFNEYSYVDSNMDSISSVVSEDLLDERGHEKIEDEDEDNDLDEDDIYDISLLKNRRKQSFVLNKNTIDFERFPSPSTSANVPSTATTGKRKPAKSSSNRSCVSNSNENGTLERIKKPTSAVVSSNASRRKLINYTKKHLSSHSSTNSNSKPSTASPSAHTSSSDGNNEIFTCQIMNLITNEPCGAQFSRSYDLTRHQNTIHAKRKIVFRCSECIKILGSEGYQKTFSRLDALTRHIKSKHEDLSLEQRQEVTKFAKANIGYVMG

Sc_Rpn4p [2] = target: T1, Sc_Rpn4p; assay: competition; SPR; 1x and 5x competitor; best competitor on Sequences A, B, C; Biacore 3000 SA chip; HBS: 10 mM HEPES pH 7.4, 150 mM NaCl, 3 mM EDTA, 0.005% P20; room temperature; 10 ul/min, 90 s injection; competitors preincubated 50 min
Sc_Rpn4p [3] = target: T1, Sc_Rpn4p; assay: SPR; Biacore 3000 SA chip; HBS: 10 mM HEPES pH 7.4, 150 mM NaCl, 3 mM EDTA, 0.005% P20; room temperature; 10 ul/min, 90 s injection; competitors preincubated 50 min
Sc_Rpn4p [4] = target: T1, Sc_Rpn4p; assay: SPR; 50 nM protein; Biacore 3000 SA chip; HBS: 10 mM HEPES pH 7.4, 150 mM NaCl, 3 mM EDTA, 0.005% P20; room temperature; 10 ul/min, 90 s injection; competitors preincubated 50 min

B1: Sequence G competitor (dsDNA)
DNA 1: CCAGATAATCCTGCATTTGGCGGAAGAAAA
DNA 2: TTTTCTTCCGCCAAATGCAGGATTATCTGG
Sc_Rpn4p [1]
  binding result: no binding

B2: Sequence D competitor (dsDNA)
DNA 1: CCAGATAATCGGTGGCAAAACGGAAGAAAA
DNA 2: TTTTCTTCCGTTTTGCCACCGATTATCTGG
Sc_Rpn4p [2]
  binding result: binds

B3: Sequence I (dsDNA)
DNA 1: ACTTGTTCCCGCTCGCTGGAGCTCCTCCAACGACACGGGC
DNA 2: GCCCGTGTCGTTGGAGGAGCTCCAGCGAGCGGGAACAAGT
Sc_Rpn4p [3]
  binding result: no binding

B4: Sequence A (dsDNA)
DNA 1: GCGTGCCAGATAATCGGTGGCAAAACGGAAGAAAAAGTGA
DNA 2: TCACTTTTTCTTCCGTTTTGCCACCGATTATCTGGCACGC
Sc_Rpn4p [4]
  binding result: binds
